Reference: US20240368260A1 (INSTITUT NATIONAL DE LA SANTE ET DE LA RECHERCHE MEDICALE, published 2024)

How the values were obtained:
[1] = target: T1, recombinant human βIG-H3 (human, UniProt Q15582 24-683); assay: direct ELISA on coated rhβIG-H3, anti-human IgG-HRP
T1 construct: Bought recombinant protein; also called rhβIG-H3; rhbIG-H3
T1 sequence (looked up): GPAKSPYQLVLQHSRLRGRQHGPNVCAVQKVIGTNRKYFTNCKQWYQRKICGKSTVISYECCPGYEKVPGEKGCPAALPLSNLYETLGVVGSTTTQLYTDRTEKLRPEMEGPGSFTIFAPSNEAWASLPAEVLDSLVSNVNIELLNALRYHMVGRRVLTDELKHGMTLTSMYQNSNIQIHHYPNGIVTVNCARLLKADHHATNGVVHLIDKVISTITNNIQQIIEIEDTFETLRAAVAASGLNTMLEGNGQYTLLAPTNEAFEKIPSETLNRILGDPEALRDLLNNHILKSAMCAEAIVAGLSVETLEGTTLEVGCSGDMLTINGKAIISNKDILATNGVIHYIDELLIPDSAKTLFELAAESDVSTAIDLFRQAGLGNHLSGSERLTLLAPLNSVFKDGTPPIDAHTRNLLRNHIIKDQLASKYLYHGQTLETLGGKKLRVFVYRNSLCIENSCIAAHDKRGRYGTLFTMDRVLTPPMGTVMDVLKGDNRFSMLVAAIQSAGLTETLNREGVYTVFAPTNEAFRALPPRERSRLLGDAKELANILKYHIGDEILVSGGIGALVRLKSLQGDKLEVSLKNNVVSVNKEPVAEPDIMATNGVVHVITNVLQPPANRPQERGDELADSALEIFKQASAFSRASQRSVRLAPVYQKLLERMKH

[2] = target: T1, recombinant human βIG-H3; assay: SPR single cycle kinetics, mAb captured via anti-human IgG (Fc) on CM5, hβIG-H3 5-100 nM as analyte, 1:1 model; SCK2 Fc4
Procedure: (§1) Anti-Human IgG (Fc) antibody is chemically grafted on a CM5 sensorchip using amine coupling according to the Cytivia 22064888AF notice. Briefly, surface is first activated by injection of a NHS-EDC mixture. Then, several injections (3 on the 10 available on the kit) of Anti-Human IgG (25 μg/ml in immobilization buffer) adjusting the contact time are performed. Finally, the surfaces are deactivated with ethanolamine 1M pH 8.5.
(§2) A negative control Ab is immobilized on sensor flowcell 1 (Fc 1) and positive control (chimeric 18B3 mAB) on Fc 2. 18B3 variants Abs are immobilized on Fc3 and Fc4:
(§3) Injection of increasing concentrations (5; 10; 25; 50; 100 nM) of antigen (hβIG-H3) during 180 s is performed on each flowcell. Short dissociations are performed in RB between each antigen concentration. After injection of the highest antigen concentration (100 nM), a dissociation in RB is recorded during 3600 s. [0348] Three similar cycles with five injections of RB are carried out before the cycle of Antigen in order to perform double subtraction procedure (Blank run). [0349] Three similar cycles with five injection of RB and a dissociation time of 600 s are performed before the blank runs in order to stabilize the system (Startup run).

[3] = target: T1, recombinant human βIG-H3; assay: SPR single cycle kinetics, mAb captured via anti-human IgG (Fc) on CM5, hβIG-H3 5-100 nM as analyte, 1:1 model; Fc4, first of two runs (run label misplaced in print)
Procedure: as §1, §2, §3

ELISA Titer [1]: 0.0036 µg/mL
Kd [2]: 0.171 nM
koff [2]: 0.000478 s⁻¹
kon [2]: 2.79e+06 M⁻¹ s⁻¹
Kd [3]: 0.12 nM
koff [3]: 0.000559 s⁻¹
kon [3]: 4.66e+06 M⁻¹ s⁻¹
B1: 18B3 H330-V1.2/L228-V1 (antibody, human IgG1, kappa, V domains shown)
VH: QVQLVESGGGVVQPGGSLRLSCAASGFTFSDYYMYWVRQAPGKGLEWVATISDGGIYKYYADSVKGRFTISRDSSKNTLYLQMNSLRAEDTAVYYCVRGWDRYDSWFASWGQGTTVTVSS
VL: DIVMTQSPLSLPVTPGEPASMSCRSSQSLLYSSNQKNYLAWYLQKPGQSPQLLIYWGSTRESGVPDRFSGSGSGTDFTLKISRVEAEDVGVYYCQQYYRYPYTFGQGTKLEIKR
notes: also called H-330/L-228 V1.2
